Source: the supplement of paper PMC10567573

B1: MLL5 (parent)
chain: EQIAERKRKMVSWEASSLGLVTAA
B2: LRRC45 (parent)
chain: DLSAANEKNLLLQNQVDELERKFR

Variants of: B1
Assay: protein stability index of a GFP-peptide fusion (GPS, HEK-293T) (PSI 1-6); higher = more stable
Conditions: c terminus: a fixed tail appended
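Further: lentivirally expressed fusions sorted by FACS into six bins by GFP to DsRed ratio, PSI derived from sequencing read proportions per bin multiplied by bin number.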

Variant	protein stability index
ECIAERKRKMVSWEASSLGLVTAA [Q2C]	1.97
EQIAERKRKLVSWEASSLGLVTAA [M10L]	3.56
EQIAERKRKNVSWEASSLGLVTAA [M10N]	3.5
VQIAERKRKMVSWEASSLGLVTAA [E1V]	2.55
EQIAERKRKMVSWEASSLHLVTAA [G19H]	2.68
EQIAERKRKMVSWEASSLQLVTAA [G19Q]	3.49
EQIAERKRKMVSWEASSLGLVTQA [A23Q]	2.31
EQIAERKRKMVSWEAKSLGLVTAA [S16K]	3.23
EQIAERIRKMVSWEASSLGLVTAA [K7I]	2.98
EQIDERKRKMVSWEASSLGLVTAA [A4D]	3.67
EQIAERKRKMVSWEASNLGLVTAA [S17N]	2.71
EQIAERKRKMVSWEASSLGLVTAC [A24C]	2.39
EQIAERKRVMVSWEASSLGLVTAA [K9V]	2.46
EQIAERKRKMVSWEASSEGLVTAA [L18E]	4.66
EQIAERKRKMVSWEASSSGLVTAA [L18S]	1.92
EQIAERKRKMVSWEASSVGLVTAA [L18V]	2.53
EQKAERKRKMVSWEASSLGLVTAA [I3K]	3.1
EQLAERKRKMVSWEASSLGLVTAA [I3L]	3.07
EQFAERKRKMVSWEASSLGLVTAA [I3F]	2.72
EQIAERKRKMVSEEASSLGLVTAA [W13E]	4.77
EQIAERKRKMVSWEASSLGLVKAA [T22K]	2.54

Variants of: B2
Assay: as above
Conditions: c terminus: a fixed tail appended

Variant	protein stability index
DLSAANEKNLLLQNQVDELERKVR [F23V]	3.91
DLSAANEKNLLLQNQVDELERKQR [F23Q]	4.29
DLSAANEKNLLLQNQVDELERKYR [F23Y]	3.85
DLSAANEKNLLLQNQVDELERKIR [F23I]	3.6
DLSAANEKNLLLQNQVDELERKGR [F23G]	4.6
DLSAANEKNLLLQNQVDELERKMR [F23M]	4.63
DLSAANEKNLLLQNQVDERERKFR [L19R]	3.68
DLSAANEKNLLLQNQVDENERKFR [L19N]	4.27
DLSAANEKNLLLQNQVDESERKFR [L19S]	4.34
DLSAANEKNLLLQNQVDEKERKFR [L19K]	3.92
DLSAANEKNLLLQNQVDEIERKFR [L19I]	4.24
DLSAANEKNLLLQNQVDEPERKFR [L19P]	3.78
DLSAANLKNLLLQNQVDELERKFR [E7L]	2.96
DLSAANWKNLLLQNQVDELERKFR [E7W]	2.72
DLSAANAKNLLLQNQVDELERKFR [E7A]	3.5
DLSAANRKNLLLQNQVDELERKFR [E7R]	3.84
DLSAANTKNLLLQNQVDELERKFR [E7T]	3.69
DLSAANVKNLLLQNQVDELERKFR [E7V]	3.46
DLSAANSKNLLLQNQVDELERKFR [E7S]	3.74
DLSAANPKNLLLQNQVDELERKFR [E7P]	4.31
DLSAANFKNLLLQNQVDELERKFR [E7F]	2.88
DLSAANEKNLLLQNQVDELENKFR [R21N]	4.47
DLSAANEKNLLLQNQVDELEHKFR [R21H]	4.22
DLSAANEKNLLLQNQVDELEQKFR [R21Q]	4.09

Variant	protein stability index
DLSAANEKNLLLQNQVDELEFKFR [R21F]	3.57
DLSAANEKNLLLQNQVDELEKKFR [R21K]	3.93
DLSAANEKNLLLQNQVDELEMKFR [R21M]	3.97
DLSAANEKNLLLQNQVDELEDKFR [R21D]	4.28
DLSAANEKNLLLQNQVDELEGKFR [R21G]	4.49
DLSAANEKNLLLQNQVDELERFFR [K22F]	3
DLSAANEKNLLLQNQVDELERRFR [K22R]	3.22
DLSAANEKNLLLQNQVDELERHFR [K22H]	3.86
DLSAANEKNLLLQNQVDELERCFR [K22C]	3.47
DLSAANEKNLLLQNQVDELERNFR [K22N]	4.18
DLSAANEKNLLLQNQVDELERWFR [K22W]	3.14
DLSAANEKNLLLQNQVDELERLFR [K22L]	3.49
DLSAANEKNLLLQNQVDELERTFR [K22T]	3.71
DLSAANEKNLLLQNQVDELERAFR [K22A]	4.27
DLSAANEKNLLLQNQVKELERKFR [D17K]	3.55
DLSAANEKNLLLQNQVYELERKFR [D17Y]	3.23
DLSAANEKNLLLQNQVVELERKFR [D17V]	3.4
DLSAANEKNLLLQNQVSELERKFR [D17S]	3.46
DLSAANEKNLLLQNQVIELERKFR [D17I]	3.01
DLSAANEKNLLLQNQVNELERKFR [D17N]	3.52
DLSAANEKNLLLQNQVGELERKFR [D17G]	3.46
DLSAANEKNLLLQNQVPELERKFR [D17P]	3.57
DLSAANEKNLLLQNQIDELERKFR [V16I]	4
DLSAANEKNLLLQNQDDELERKFR [V16D]	4.12

Variant	protein stability index
DLSAANEKNLLLQNQNDELERKFR [V16N]	4.24
DLSAANEKNLLLQNQMDELERKFR [V16M]	3.79
DLSAANEKNLLLQNQPDELERKFR [V16P]	4.09
DLSAANEKNLLLQNQCDELERKFR [V16C]	3.88
DLSAANEKNLLLQNQKDELERKFR [V16K]	4.42
DLSAANEKNLLLQNQEDELERKFR [V16E]	4.72
DLSAANESNLLLQNQVDELERKFR [K8S]	4.36
DLSAANECNLLLQNQVDELERKFR [K8C]	3.83
DLSAANEHNLLLQNQVDELERKFR [K8H]	4.06
DLSAANEPNLLLQNQVDELERKFR [K8P]	4.35
DLSAANEKTLLLQNQVDELERKFR [N9T]	4.59
DLSAANEKPLLLQNQVDELERKFR [N9P]	4.3
DLSAANEKILLLQNQVDELERKFR [N9I]	4.21
DLSAANEKYLLLQNQVDELERKFR [N9Y]	3.67
DLSAANEKFLLLQNQVDELERKFR [N9F]	3.98
DLSAANEKVLLLQNQVDELERKFR [N9V]	4.12
DLSAKNEKNLLLQNQVDELERKFR [A5K]	4.33
DLSAVNEKNLLLQNQVDELERKFR [A5V]	3.95
DLSAGNEKNLLLQNQVDELERKFR [A5G]	4.22
DLSADNEKNLLLQNQVDELERKFR [A5D]	3.69
DLSAANEKNLLLQNQVDRLERKFR [E18R]	2.96
DLSAANEKNLLLQNQVDYLERKFR [E18Y]	3.26
DLSAANEKNLLLQNQVDPLERKFR [E18P]	3.91
DLSAANEKNLLLQNQVDTLERKFR [E18T]	3.7

Variant	protein stability index
DLSAANEKNLLQQNQVDELERKFR [L12Q]	4.19
DLSAANEKNLLRQNQVDELERKFR [L12R]	3.98
DLSAANEKNLLMQNQVDELERKFR [L12M]	3.87
DLSAANEKNLLWQNQVDELERKFR [L12W]	3.48
DLSAANEKNLLDQNQVDELERKFR [L12D]	4.46
DLSAANEKNLLEQNQVDELERKFR [L12E]	4.61
DLSAANEKNLLVQNQVDELERKFR [L12V]	4.36
DLSAANEKNLLKQNQVDELERKFR [L12K]	3.77
DLSAANEKNLLYQNQVDELERKFR [L12Y]	4.08
DLSAANEKNLLAQNQVDELERKFR [L12A]	4.37
DLSAANEKNLLSQNQVDELERKFR [L12S]	4.03
DLSAANEKNLLPQNQVDELERKFR [L12P]	4.18
DLSAANEKNLLHQNQVDELERKFR [L12H]	4
DLFAANEKNLLLQNQVDELERKFR [S3F]	3.49
DLPAANEKNLLLQNQVDELERKFR [S3P]	4.31
DLHAANEKNLLLQNQVDELERKFR [S3H]	4.13
DLAAANEKNLLLQNQVDELERKFR [S3A]	4.44
DLDAANEKNLLLQNQVDELERKFR [S3D]	4.64
DLCAANEKNLLLQNQVDELERKFR [S3C]	3.74
DLSAANEKNLLLQNQVDELMRKFR [E20M]	2.81
DLSAANEKNLLLQNQVDELDRKFR [E20D]	4.25
DLSAANEKNLLLQNQVDELNRKFR [E20N]	3.27
DLSAANEKNLLLQNQVDELFRKFR [E20F]	2.54
DLSAANEKNLLLQNQVDELHRKFR [E20H]	3.35

Variant	protein stability index
DLSAANEKNLLLQNQVDELTRKFR [E20T]	3.43
DLSAANEKNLLLQNQVDELGRKFR [E20G]	3.22
DLSAANEKNLLLQNQVDELKRKFR [E20K]	3.2
DLSAANEKNLLLQNQVDELVRKFR [E20V]	3.75
DLSAANEKNLPLQNQVDELERKFR [L11P]	4.32
DLSAANEKNLDLQNQVDELERKFR [L11D]	4.94
DLSAANEKNLALQNQVDELERKFR [L11A]	4.42
DLSHANEKNLLLQNQVDELERKFR [A4H]	4.01
DLSWANEKNLLLQNQVDELERKFR [A4W]	3.78
DLSMANEKNLLLQNQVDELERKFR [A4M]	3.49
DLSFANEKNLLLQNQVDELERKFR [A4F]	3.61
DLSVANEKNLLLQNQVDELERKFR [A4V]	3.77
DLSRANEKNLLLQNQVDELERKFR [A4R]	4.07
DLSCANEKNLLLQNQVDELERKFR [A4C]	3.85
DLSYANEKNLLLQNQVDELERKFR [A4Y]	3.91
DLSKANEKNLLLQNQVDELERKFR [A4K]	4.36
DLSAANEKNDLLQNQVDELERKFR [L10D]	4.86
DLSAANEKNRLLQNQVDELERKFR [L10R]	4.06
DLSAANEKNNLLQNQVDELERKFR [L10N]	4.17
DLSAANEKNVLLQNQVDELERKFR [L10V]	4.39
DLSAANEKNGLLQNQVDELERKFR [L10G]	4.77
DLSAANEKNKLLQNQVDELERKFR [L10K]	4
DLSAANEKNTLLQNQVDELERKFR [L10T]	4.26
DLSAANEKNLLLQNQVDELERKFW [R24W]	3.52

Variant	protein stability index
DLSAANEKNLLLQNQVDELERKFM [R24M]	3.96
DLSAANEKNLLLQNQVDELERKFP [R24P]	4.59
DLSAANEKNLLLQNQVDELERKFK [R24K]	4.66
DLSAANEKNLLLQNQVDELERKFN [R24N]	4.47
DLSAANEKNLLLQNQVDELERKFE [R24E]	4.71
DLSAANEKNLLLQNQVDELERKFV [R24V]	3.71
DLSAANEKNLLLQNQVDELERKFT [R24T]	4.14
DLSAANEKNLLLQAQVDELERKFR [N14A]	3.95
DLSAANEKNLLLQMQVDELERKFR [N14M]	3.54
DLSAANEKNLLLQRQVDELERKFR [N14R]	3.76
DLSAANEKNLLLQVQVDELERKFR [N14V]	3.62
DLSAANEKNLLLQFQVDELERKFR [N14F]	3.02
DLSAANEKNLLLQSQVDELERKFR [N14S]	3.51
DLSAAGEKNLLLQNQVDELERKFR [N6G]	4.82
DLSAALEKNLLLQNQVDELERKFR [N6L]	3.8
DLSAAIEKNLLLQNQVDELERKFR [N6I]	3.27
DLSAAHEKNLLLQNQVDELERKFR [N6H]	4.27
FLSAANEKNLLLQNQVDELERKFR [D1F]	4.09
VLSAANEKNLLLQNQVDELERKFR [D1V]	4.34
MLSAANEKNLLLQNQVDELERKFR [D1M]	4.23
SLSAANEKNLLLQNQVDELERKFR [D1S]	4.25
WLSAANEKNLLLQNQVDELERKFR [D1W]	3.75
LLSAANEKNLLLQNQVDELERKFR [D1L]	3.93
RLSAANEKNLLLQNQVDELERKFR [D1R]	4.41

Variant	protein stability index
DLSAANEKNLLLQNYVDELERKFR [Q15Y]	2.76
DLSAANEKNLLLQNRVDELERKFR [Q15R]	3.5
DLSAANEKNLLLQNSVDELERKFR [Q15S]	4.42
DLSAANEKNLLLQNCVDELERKFR [Q15C]	3.84
DLSAANEKNLLLQNGVDELERKFR [Q15G]	4.36
DLSAANEKNLLLQNFVDELERKFR [Q15F]	2.32
DLSAANEKNLLLQNVVDELERKFR [Q15V]	3.48
DLSAANEKNLLLQNPVDELERKFR [Q15P]	3.71
DLSAANEKNLLLQNLVDELERKFR [Q15L]	3.01
DLSAANEKNLLLANQVDELERKFR [Q13A]	4.25
DLSAANEKNLLLNNQVDELERKFR [Q13N]	3.68
DLSAANEKNLLLHNQVDELERKFR [Q13H]	3.66
DLSAANEKNLLLWNQVDELERKFR [Q13W]	3.3
DLSAANEKNLLLTNQVDELERKFR [Q13T]	4.11
DLSAANEKNLLLCNQVDELERKFR [Q13C]	4.03
DESAANEKNLLLQNQVDELERKFR [L2E]	5.13
DPSAANEKNLLLQNQVDELERKFR [L2P]	4.67
DASAANEKNLLLQNQVDELERKFR [L2A]	5.21
DDSAANEKNLLLQNQVDELERKFR [L2D]	5.31
DHSAANEKNLLLQNQVDELERKFR [L2H]	4.61
DYSAANEKNLLLQNQVDELERKFR [L2Y]	4.85
DMSAANEKNLLLQNQVDELERKFR [L2M]	4.19
DKSAANEKNLLLQNQVDELERKFR [L2K]	5.06
